Test results from US20080279844.

Target: T1, IκBα, P25963
T1 chain: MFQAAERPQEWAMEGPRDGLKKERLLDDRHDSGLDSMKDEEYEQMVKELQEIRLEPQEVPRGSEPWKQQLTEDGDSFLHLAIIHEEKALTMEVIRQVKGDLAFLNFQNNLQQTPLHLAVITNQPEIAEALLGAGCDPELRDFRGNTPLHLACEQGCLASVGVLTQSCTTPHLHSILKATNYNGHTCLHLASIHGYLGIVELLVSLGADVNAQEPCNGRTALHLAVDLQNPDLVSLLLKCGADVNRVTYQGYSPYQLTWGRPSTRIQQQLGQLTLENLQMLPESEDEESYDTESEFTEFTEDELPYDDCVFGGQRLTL

B1: Tissue transglutaminase (TG2, EC 2.3.2.13) (protein)
chain: AEELVLERCDLELETNGRDHHTADLCREKLVVRRGQPFWLTLHFEGRNYEASVDSLTFSVVTGPAPSQEAGTKARFPLRDAVEEGDWTATVVDQQDCTLSLQLTTPANAPIGLYRLSLEASTGYQGSSFVLGHFILLFNAWCPADAVYLDSEEERQEYVLTQQGFIYQGSAKFIKNIPWNFGQFEDGILDICLILLDVNPKFLKNAGRDCSRRSSPVYVGRVVSGMVNCNDDQGVLLGRWDNNYGDGVSPMSWIGSVDILRRWKNHGCQRVKYGQCWVFAAVACTVLRCLGIPTRVVTNYNSAHDQNSNLLIEYFRNEFGEIQGDKSEMIWNFHCWVESWMTRPDLQPGYEGWQALDPTPQEKSEGTYCCGPVPVRAIKEGDLSTKYDAPFVFAEVNADVVDWIQQDDGSVHKSINRSLIVGLKISTKSVGRDEREDITHTYKYPEGSSEEREAFTRANHLNKLAEKEETGMAMRIRVGQSMNMGSDFDVFAHITNNTAEEYVCRLLLCARTVSYNGILGPECGTKYLLNLNLEPFSEKSVPLCILYEKYRDCLTESNLIKVRALLVEPVINSYLLAERDLYLENPEIKIRILGEPKQKRKLVAEVSLQNPLPVALEGCTFTVEGAGLTEEQKTVEIPDPVEAGEEVKVRMDLLPLHMGLHKLVVNFESDKLKAVKGFRNVIIGPA
- in vitro BPA labeling of IκBα immunoprecipitates in the presence of Ca2+ (3 mM), probed with horseradish peroxidase-conjugated streptavidin: demonstrated the presence of high-molecular-weight forms (dimeric and polymeric) of IκBα
